{
  "source": "paper PMC9602544",
  "target": "human plasma fibronectin (human)",
  "sequence (P02751 32-2477)": "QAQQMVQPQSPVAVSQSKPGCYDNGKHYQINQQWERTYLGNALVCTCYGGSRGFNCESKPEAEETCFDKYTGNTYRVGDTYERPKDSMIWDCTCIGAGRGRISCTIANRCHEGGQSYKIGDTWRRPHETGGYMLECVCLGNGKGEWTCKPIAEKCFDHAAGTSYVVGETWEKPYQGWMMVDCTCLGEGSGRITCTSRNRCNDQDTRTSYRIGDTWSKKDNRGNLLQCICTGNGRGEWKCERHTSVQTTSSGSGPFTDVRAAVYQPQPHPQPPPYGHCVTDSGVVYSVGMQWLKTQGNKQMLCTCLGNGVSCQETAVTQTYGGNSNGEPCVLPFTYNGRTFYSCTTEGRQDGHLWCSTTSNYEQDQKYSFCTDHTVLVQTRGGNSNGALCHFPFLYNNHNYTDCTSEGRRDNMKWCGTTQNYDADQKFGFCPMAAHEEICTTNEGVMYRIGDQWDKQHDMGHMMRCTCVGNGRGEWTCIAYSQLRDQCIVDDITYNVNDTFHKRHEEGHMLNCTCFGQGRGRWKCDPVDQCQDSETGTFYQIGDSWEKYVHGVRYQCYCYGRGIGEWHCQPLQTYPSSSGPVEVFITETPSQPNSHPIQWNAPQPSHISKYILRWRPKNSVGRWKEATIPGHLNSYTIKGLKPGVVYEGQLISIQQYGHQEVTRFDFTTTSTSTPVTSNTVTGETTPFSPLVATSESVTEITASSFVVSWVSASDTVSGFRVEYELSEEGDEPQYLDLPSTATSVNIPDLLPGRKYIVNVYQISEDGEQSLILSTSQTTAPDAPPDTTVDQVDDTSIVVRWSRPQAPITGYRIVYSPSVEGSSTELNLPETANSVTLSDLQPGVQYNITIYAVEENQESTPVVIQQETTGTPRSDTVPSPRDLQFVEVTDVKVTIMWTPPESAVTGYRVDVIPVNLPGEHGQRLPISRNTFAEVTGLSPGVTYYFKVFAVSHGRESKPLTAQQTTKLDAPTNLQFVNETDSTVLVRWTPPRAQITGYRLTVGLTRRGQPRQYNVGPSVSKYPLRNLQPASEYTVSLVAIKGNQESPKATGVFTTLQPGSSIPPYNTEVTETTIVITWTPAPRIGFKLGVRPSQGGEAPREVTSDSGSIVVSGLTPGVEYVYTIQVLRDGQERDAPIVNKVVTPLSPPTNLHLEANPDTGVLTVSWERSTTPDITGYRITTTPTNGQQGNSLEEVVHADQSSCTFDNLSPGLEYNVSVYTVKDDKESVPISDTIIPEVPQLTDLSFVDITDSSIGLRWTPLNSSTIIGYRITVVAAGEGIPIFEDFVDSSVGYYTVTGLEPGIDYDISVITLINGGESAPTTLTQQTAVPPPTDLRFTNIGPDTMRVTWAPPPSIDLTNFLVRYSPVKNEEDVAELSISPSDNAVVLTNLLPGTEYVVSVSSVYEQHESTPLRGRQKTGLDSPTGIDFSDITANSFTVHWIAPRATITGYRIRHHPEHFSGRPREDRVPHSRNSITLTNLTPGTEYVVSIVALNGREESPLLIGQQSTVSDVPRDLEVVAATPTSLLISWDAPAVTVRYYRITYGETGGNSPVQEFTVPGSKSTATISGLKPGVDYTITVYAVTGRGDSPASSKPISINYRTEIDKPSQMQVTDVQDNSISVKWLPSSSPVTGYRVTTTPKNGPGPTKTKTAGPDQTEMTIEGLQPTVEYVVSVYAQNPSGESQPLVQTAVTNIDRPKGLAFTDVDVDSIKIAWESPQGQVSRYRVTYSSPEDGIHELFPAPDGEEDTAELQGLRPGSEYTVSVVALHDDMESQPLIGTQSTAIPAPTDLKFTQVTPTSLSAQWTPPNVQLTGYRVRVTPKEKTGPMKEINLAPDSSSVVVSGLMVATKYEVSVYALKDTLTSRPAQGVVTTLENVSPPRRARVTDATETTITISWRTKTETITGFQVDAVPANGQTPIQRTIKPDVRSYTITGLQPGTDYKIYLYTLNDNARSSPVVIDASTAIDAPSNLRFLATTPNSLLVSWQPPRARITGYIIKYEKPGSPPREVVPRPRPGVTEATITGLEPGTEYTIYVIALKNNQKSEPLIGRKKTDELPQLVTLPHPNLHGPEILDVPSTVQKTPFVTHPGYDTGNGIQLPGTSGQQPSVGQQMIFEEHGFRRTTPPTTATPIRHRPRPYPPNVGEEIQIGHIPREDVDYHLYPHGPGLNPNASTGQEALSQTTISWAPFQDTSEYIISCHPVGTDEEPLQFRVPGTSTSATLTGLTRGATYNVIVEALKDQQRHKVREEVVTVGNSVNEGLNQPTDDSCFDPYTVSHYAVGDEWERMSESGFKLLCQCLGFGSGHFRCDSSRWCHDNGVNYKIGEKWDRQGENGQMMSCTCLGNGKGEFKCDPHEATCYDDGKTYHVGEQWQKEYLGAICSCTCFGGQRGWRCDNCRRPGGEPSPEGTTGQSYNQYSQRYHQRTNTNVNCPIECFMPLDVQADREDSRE",
  "assay": "ELISA; whole-cell ELISA; 1 ug human plasma Fn coated on Maxisorp wells, blocked with 2% BSA; ca. 2.5 x 10^7 washed bacteria added for 2 h at 37°C; attached bacteria detected with anti-B. henselae IgG, absorbance at 450 nm; triplicate",
  "data": [
    {"substance": "Bartonella adhesin A (BadA) of B. henselae Marseille, wild type (from UniProt Q5MWV9 48-3082) (natural protein)", "values": [
      {"measurement": "absorbance at 450 nm, whole-cell ELISA", "result": 0.908}
    ]}
  ]
}
